B1: chimeric 29A10 antibody (antibody, human IgG2, kappa, V domains shown)
VH: QVKLEQSGGGLVKPGGSLKLSCAASGFTFSHYYMYWVRQTPEKRLEWVATISDAGSYTYYSDSVKGRFTISRDNAKNNLYLQMSSLKSDDTAMYFCARTYYRGDGGYWFFDVWGAGTAVTVSS
VL: DIVITQSTSSLAVSVGEKVTMSCESSQSLLYSSNQKNYLAWYQQKPGQSPKLLIYWASTRESGVPDRFTASGSGTDFTLTISSVKAEDLAVYYCQQYYRSPLTFGAGTKLELKR
notes: Mouse variable regions with human IgG2/kappa constant regions
B2: chimeric 77D9 antibody (antibody, human IgG2, kappa, V domains shown)
VH: QVKLEESGGGLVKPGGSLKLSCAASGFTFRNYAMSWVRQSPGERLEWVAEVSGSGYYTYYPDTVTGRFTISRDNANNTLYLEVSSLRSEDTAMYYCTSRAYWGQGTLVTVSA
VL: IVMTQSPTLSLPVSLGDQASISCRSSQSIVLTNGNTYLEWYLQRPGQSPKLLIYKVSNRFSGVPDRFSGSGSGTDFTLKISRVEAEDLGVYYCFQGSHVPYTFGGGTKLEIKR
notes: as for B1
B3: chimeric 142F7 antibody (antibody, human IgG2, kappa, V domains shown)
VH: EVQLEQSGAELVRPGTSVKVSCKASGYAFTNYLIEWGIQRPGQGLEWIGVINPGTGGTNYNEKFKDKATLTTDKSSSTAYMQLSSLTSDDSAVYFCARGGSGFAYWGQGTLVTVSA
VL: DIVLTQTTSSLSASLGDRVTISCRASQDINNYLNWYQQKPDGTVKLLIYYTSRLHSGVPSRFSGSGSGTDYSLTISNLEQEDIATYFCQQGNTLPWTFGGGTKLEIKR
notes: as for B1
B4: chimeric 7B4 antibody (antibody, human IgG2, kappa, V domains shown)
VH: EVQLQESGPGLVKPSQSLSLTCSVTGYSITTNYYWNWIRQFPGNKLEWMGYIKYDGSNNYNPSLKNRISITRDTSKNQFFLKLNSVTTEDTATYYCARLDYWGQGTSVTVSS
VL: DIVLTQSPLSLPVSLGDQASISCRSSQSLENSNGNTFLNWFLQKPGQSPQLLIYKVSNRFSGVLDRFSGTGSGTDFTLTISRVEAEDLGVYFCLQVTHVPFTFGSGTKLEIKR
notes: as for B1
B5: chimeric 16A6 antibody (antibody, human IgG2, kappa, V domains shown)
VH: EVQLEQSGPGLVKPSQSLSLTCSVTGYSITTNYHWNWIRQFPGNKLEWMGYIKYDGSNNYNPSLKNRISITRDTSKNQFFLKLNSVTTEDTATYYCARLDYWGQGTSVTVSS
VL: DIVLTQSTLSLSVSLGDQASISCRSSQSLENSNGNTFLNWFLQKPGQSPQLLIYKVSNRFSGVLDRFSGTGSGTDLTLTISRVEAEDLGVYFCLQVTHVPFTFGSGTKLEIKR
notes: as for B1
B6: 13A2-VH2VL2 (antibody, human IgG2, kappa, V domains shown)
VH: QVQLQESGPGLVKPSDTLSLTCAVSGYSITTNYYWNWIRQPPGKGLEWMGYINYDGSNNYNPSLKNRITISVDTSKNQFSLKLSSVTAVDTAVYYCARLDYWGQGTLVTVSS
VL: DVVLTQSPLSLPVTLGQPASISCRSSQSLENSNGNTFLNWFQQRPGQSPRLLIYKVSNRFSGVPDRFSGSGSGTDFTLKISRVEAEDVGVYYCLQVTHVPFTFGQGTKLEIKR
notes: Humanized, human IgG2/kappa
B7: 7B4-VH2VL3 (antibody, human IgG2, kappa, V domains shown)
VH: QVQLQESGPGLVKPSDTLSLTCAVSGYSITTNYYWNWIRQPPGKGLEWMGYIKYDGSNNYNPSLKNRITISVDTSKNQFSLKLSSVTAVDTAVYYCARLDYWGQGTLVTVSS
VL: DVVLTQSPLSLPVTLGQPASISCRSSQSLENSNGNTFLNWFQQRPGQSPRLLIYKVSNRFSGVPDRFSGSGSGTDFTLKISRVEAEDVGVYFCLQVTHVPFTFGSGTKLEIKR
notes: Humanized, human IgG2/kappa
B8: 7B4-VH3VL2 (antibody, human IgG2, V domains shown)
VH: QVQLQESGPGLVKPSDTLSLTCAVSGYSITTNYYWNWIRQPPGNKLEWMGYIKYDGSNNYNPSLKNRITISVDTSKNQFSLKLSSVTAVDTAVYYCARLDYWGQGTLVTVSS
VL: DVVLTQSPLSLPVTLGQPASISCRSSQSLENSNGNTFLNWFQQRPGQSPRLLIYKVSNRFSGVPDRFSGSGSGTDFTLKISRVEAEDVGVYYCLQVTHVPFTFGQGTKLEIKR
notes: Humanized, human IgG2/kappa
B9: 13A2-VH0VL0 (antibody, human IgG2, kappa, V domains shown)
VH: QVQLQESGPGLVKPSDTLSLTCAVSGYSITTNYYWNWIRQPPGKGLEWIGYINYDGSNNYNPSLKNRVTMSVDTSKNQFSLKLSSVTAVDTAVYYCARLDYWGQGTLVTVSS
VL: DVVMTQSPLSLPVTLGQPASISCRSSQSLENSNGNTFLNWFQQRPGQSPRRLIYKVSNRFSGVPDRFSGSGSGTDFTLKISRVEAEDVGVYYCLQVTHVPFTFGQGTKLEIKR
notes: Humanized, human IgG2/kappa
B10: 13A2-VH2VL3 (antibody, human IgG2, kappa, V domains shown)
VH: QVQLQESGPGLVKPSDTLSLTCAVSGYSITTNYYWNWIRQPPGKGLEWMGYINYDGSNNYNPSLKNRITISVDTSKNQFSLKLSSVTAVDTAVYYCARLDYWGQGTLVTVSS
VL: DVVLTQSPLSLPVTLGQPASISCRSSQSLENSNGNTFLNWFQQRPGQSPRLLIYKVSNRFSGVPDRFSGSGSGTDFTLKISRVEAEDVGVYFCLQVTHVPFTFGSGTKLEIKR
notes: Humanized, human IgG2/kappa
B11: 7B4-VH0VL0 (antibody, human IgG2, kappa, V domains shown)
VH: QVQLQESGPGLVKPSDTLSLTCAVSGYSITTNYYWNWIRQPPGKGLEWIGYIKYDGSNNYNPSLKNRVTMSVDTSKNQFSLKLSSVTAVDTAVYYCARLDYWGQGTLVTVSS
VL: DVVMTQSPLSLPVTLGQPASISCRSSQSLENSNGNTFLNWFQQRPGQSPRRLIYKVSNRFSGVPDRFSGSGSGTDFTLKISRVEAEDVGVYYCLQVTHVPFTFGQGTKLEIKR
notes: Humanized, human IgG2/kappa
B12: 7B4-VH3VL3 (antibody, human IgG2, V domains shown)
VH: QVQLQESGPGLVKPSDTLSLTCAVSGYSITTNYYWNWIRQPPGNKLEWMGYIKYDGSNNYNPSLKNRITISVDTSKNQFSLKLSSVTAVDTAVYYCARLDYWGQGTLVTVSS
VL: DVVLTQSPLSLPVTLGQPASISCRSSQSLENSNGNTFLNWFQQRPGQSPRLLIYKVSNRFSGVPDRFSGSGSGTDFTLKISRVEAEDVGVYFCLQVTHVPFTFGSGTKLEIKR
notes: Humanized, human IgG2/kappa
B13: chimeric 50F6 antibody (antibody, human IgG2, kappa, V domains shown)
VH: QVQLEQSGDDLVKPGASVKLSCKASGYTFTTYWINWIKQRPGQGLEWIGRISPGSGSTHYNEMFKGKATLTVDTSSSTAYIQLSSLSSEDSAVYFCTRNDYWGQGTTLTVSS
VL: DIVLTQSPLSLPVSLGDQASISCRSSQSIVNSNGNTYLEWYLQKPGQSPKLLIYKVSNRFSGVPDRFSGSGSGTDFTLKISRVEAEDLGVYYCFQGSHVPLTFGAGTKLELKR
notes: as for B1
B14: chimeric 92F6 antibody (antibody, human IgG2, kappa, V domains shown)
VH: QVQLEQSGAEVVKPGASVKVSCTASGFNIKDTYMHWVKQRPEQGLEWIGRIDPANGNTNYDPKFQGKATITADTSSNTGYLQLSSLTSEDTAVYYCSRWGYDWYFDVWGAGTSVTVSS
VL: DIVITQSTAIMSASPGEKVTITCSASSSVSYIHWFQQKPGTSPKLWIYTTANLASGVPARFSGSGSGTSYSLTISRMEAEDAATYYCQQRSNYPFTFGSGTKLEIKR
notes: as for B1

Experiments:
[1] = molecular target: T1, mouse CD40 expressed on HEK293A cells (mouse, UniProt P27512 20-289); assay: FACS, HEK293A/mouseCD40 cells
T1 construct: also called HEK293A/mouseCD40
T1 sequence (P27512 20-289 limits assumed): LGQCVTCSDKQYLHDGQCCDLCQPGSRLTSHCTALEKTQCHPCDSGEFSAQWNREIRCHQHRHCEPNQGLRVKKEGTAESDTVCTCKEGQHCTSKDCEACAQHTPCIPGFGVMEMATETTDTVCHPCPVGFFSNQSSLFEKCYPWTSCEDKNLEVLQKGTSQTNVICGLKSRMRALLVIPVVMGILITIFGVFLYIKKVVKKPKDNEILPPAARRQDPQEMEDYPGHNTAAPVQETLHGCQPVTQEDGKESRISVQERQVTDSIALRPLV

[2] = molecular target: T2, recombinant human CD40 (ECD)-his (human, UniProt P25942 21-193); assay: SPR (Biacore 8K), hCD40(ECD)-his coupled to chip, antibody injected
T2 construct: Bought protein; also called hCD40(ECD)-his; TNFRSF5
T2 sequence (P25942 21-193): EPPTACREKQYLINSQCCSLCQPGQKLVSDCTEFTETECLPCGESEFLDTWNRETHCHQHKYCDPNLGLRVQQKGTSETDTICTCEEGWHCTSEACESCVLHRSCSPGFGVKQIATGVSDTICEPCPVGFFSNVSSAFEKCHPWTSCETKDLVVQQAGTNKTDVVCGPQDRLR
Experimental: SPR assays were used to determine the binding affinity of the chimetic or humanized anti-CD40 antibodies to human CD40 with the BIAcore™ 8K instrument (GE Life Sciences). Briefly, 100-200 response units (RU) of human CD40 (ECD)-his protein (Sino Biological, CN, Cat #: 10774-H08H) were coupled to CM5 biosensor chips (Cat #: BR-1005-30, GE Life Sciences), followed by blocking of un-reacted groups with 1M ethanolamine. Serially diluted antibodies at concentrations ranging from […] were injected into the SPR running buffer (HBS-EP buffer, pH7.4, GE Life Sciences; US; Cat #: BR-1006-69) at 30 μL/minute. The binding capacity was calculated with the RUs of blank controls subtracted. The association rate (k_a) and dissociation rate (k_d) were calculated using the one-to-one Langmuir binding model (BIA Evaluation Software, GE Life Sciences). The equilibrium dissociation constant K_D was calculated as the k_d/k_a ratio.

[3] = molecular target: T3, rhesus CD40 expressed on HEK293A cells (rhesus monkey, UniProt P25942 21-277 (human entry)); assay: FACS on HEK293A/rhesus CD40 cells, serially diluted antibody (Example 14, protocol of Example 5)
T3 construct: also called HEK293A/rhesusCD40
T3 chain: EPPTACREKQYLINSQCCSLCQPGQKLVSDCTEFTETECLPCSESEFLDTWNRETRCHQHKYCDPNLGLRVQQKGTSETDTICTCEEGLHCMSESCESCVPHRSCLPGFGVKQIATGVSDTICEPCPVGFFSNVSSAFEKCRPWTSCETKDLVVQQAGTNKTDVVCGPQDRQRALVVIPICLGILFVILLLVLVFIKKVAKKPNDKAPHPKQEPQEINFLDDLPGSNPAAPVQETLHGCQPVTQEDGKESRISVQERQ
Experimental: Example 5 Mouse Anti-CD40 Monoclonal Antibodies Bound to Human and Rhesus CD40 Expressed on HEK293A Cells To further determine whether anti-CD40 antibodies bound to human, monkey or mouse CD40 expressed on HEK293A cells, a cell-based binding assay by FACS was performed using the HEK293A cells stably overexpressing human, monkey or mouse CD40 as generated in Example 1, respectively. Briefly, 10^5 HEK293A cells were seeded into each well of the 96-well plates and serially diluted anti-CD40 antibodies were added to the plates. After incubated at 4° C. for 1 hour, plates were washed 3 times with PBST. Then, an APC coupled Goat Anti-Mouse IgG (BioLegen, US, Cat #: 405308) diluted 500× was added to the plates. After incubation at 4° C. for 1 hour, the plates were washed with PBS for 3 times and then cell fluorescence was monitored using a FACS machine (BD).
The chimeric and humanized anti-CD40 antibodies were further characterized for their ability of binding to HEK293A/humanCD40 cells and HEK293A/rhesus CD40 cells, following the protocols described in Example 5. They were also tested for their ability to activate CD40 signaling in HEK-Blue assay, and to promote dendritic cell maturation, following the protocols in Example 7 and Example 9, respectively, the dendritic cells collected form three healthy human donors. IL-12(p40) secretion by the dendritic cells was measured by using human IL12(p40) ELISA kit (BD, US, Cat #: 551116) following themanufactor's instruction.

Binder	binding result [1]	Kd [2]	koff [2]	kon [2]	binding result [3]	EC50 (read off the curve) [3]
B1	no binding					
B2	no binding					
B3	no binding					
B4	no binding	3.6 nM	0.0036 s⁻¹	1e+06 M⁻¹ s⁻¹		
B5	no binding					
B6		2.08 nM	0.00171 s⁻¹	823000 M⁻¹ s⁻¹	binds	
B7		3.6 nM	0.00639 s⁻¹	1.78e+06 M⁻¹ s⁻¹		~0.2 µg/mL
B8		4.2 nM	0.00615 s⁻¹	1.46e+06 M⁻¹ s⁻¹		~0.2 µg/mL
B9		28.8 nM	0.0114 s⁻¹	396000 M⁻¹ s⁻¹	binds	
B10		3.55 nM	0.00261 s⁻¹	735000 M⁻¹ s⁻¹	binds	
B11		2.47 nM	0.0068 s⁻¹	2.75e+06 M⁻¹ s⁻¹		~0.2 µg/mL
B12		2.99 nM	0.00488 s⁻¹	2.13e+06 M⁻¹ s⁻¹		~0.2 µg/mL
B13	no binding					
B14	no binding					

Source: patent US10654939 (BEIJING MABWORKS BIOTECH, dated 2020)
